Article PMC5800367

Legend:
[1] = target: Serum purified human C5 (Homo sapiens) (UniProt P01031); assay: DELFIA biochemical competition assay
[2] = target: Recombinant human C5a (Homo sapiens) (UniProt P01031); assay: DELFIA biochemical competition assay
[3] = target: Serum purified Cynomolgus C5a (Macaca fascicularis); assay: SPR
[4] = target: Serum purified human C5a (Homo sapiens) (UniProt P01031); assay: SPR
[5] = target: Recombinant Cynomolgus C5adesArg (Macaca fascicularis); assay: SPR
[6] = target: Recombinant human C5a (Homo sapiens) (UniProt P01031); assay: SPR
[7] = target: Recombinant human C5a (Homo sapiens) (UniProt P01031); assay: kinetic exclusion assay

IC50 [1]: 600 pM
IC50 [2]: 300 pM
koff [3]: 0.000154 s⁻¹
kon [3]: 8.08e+06 M⁻¹ s⁻¹
Kd [4]: 8 pM
koff [4]: 0.000165 s⁻¹
kon [4]: 2.18e+07 M⁻¹ s⁻¹
Kd [5]: 10 pM
koff [5]: 0.000144 s⁻¹
kon [5]: 1.51e+07 M⁻¹ s⁻¹
Kd [6]: 14 pM
koff [6]: 0.000251 s⁻¹
kon [6]: 1.74e+07 M⁻¹ s⁻¹
Kd [7]: 4 pM
Substance: MEDI7814 (antibody)
